# Source: the nanobody polyreactivity screen of Harvey et al. (2022)
# Test: yeast display, Sf9 membrane polyspecificity reagent, FACS + sequencing; frameworks hold sequencing errors
# Procedure, shortened: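 A synthetic nanobody library was expressed on Saccharomyces cerevisiae BJ5465 by galactose induction for 36–48 hours. The library was stained for 1 hour at 4 °C with 10% biotinylated, detergent-solubilized Sf9 membrane reagent and enriched with streptavidin microbeads before FACS. Low and high (top ~1%) gates were set on anti-HA fluorescence for expression and streptavidin fluorescence for reagent binding, and each polyreactivity label reflects the gate of origin.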
row,Sequence,polyreactivity (PSR sort gate)
1,QVQLVESGGGLVQAGGSLRLSCAASGRIFKSDGMGWYREAPGKERELVATISSSGDSTYYADSVKGRFTISRDNAKNTVYLQMNSLKPDDTAVYHCAKRARYKFGYWGQGTQVTVSS,high polyreactivity
2,QVQLVESGGGLVQAGGSLRLSCAASGRTLSVYAMGWYRQAPGKERELVAAITKSGGSTYYADSVKGRFTISRDNAKNTVYLQMNSLKPEDTAVYYCAAEGDWRGYALYNYWGQGTQVTVSS,low polyreactivity
3,QVQLVESGGGLVQAGGSLRLSCAASGSIFKYYAMGWYRQAPGKERELVAAITSGGSTSYADSVKGRFTISRDNAKNTVYLQMNSLKPEDTAVYYCAASGNSYRLRYWWSELDYWGQGTQVTVSS,high polyreactivity
4,QVQLEESGGGLVQAGGSLRLSCAASGRIFRYTLGWYRQAPGKERELVATINSGGRTYDADSVKGRFTISRDNAKNTVYLQMNSLKPEDTAVYYCAATYQTKSNKYVHGSPIENDYWGQGTQVTGSS,low polyreactivity
5,QVQIVESGGGLVQAGGSLRLSCAASGSTFWYNAMGWYRQAPGKERELVAAITWTGDGTYYADSVKGRFTISRDNAKNTVYLQMNSLKPEDTAVYYCAAAYFQWSTSIVGLDAGYDYWGQGTQVNVSS,low polyreactivity
6,QVQLQESGGGLVQAGGSLRLSCAASGPISRRSTMGWYRQAPGKERELVTAITRGTNTNYADSVKGRFTISRDNAKNTEYLQMNSLKPVDTAVYYCAAYGVLNPSRGDAVFHRYWGQGTQVSVSS,low polyreactivity
7,QVQLVESGGGLVQAGGSLRLSCAASGLTFEYYTMGWYRQAPGKERELVAAITSSGGSTYYADSVKGRFTISRDNAKNTVYLQMNSLKPEDTAVYYCAARWRHYFVWKSYDYWGQGTQVTVSS,low polyreactivity
8,QVHLVDSGGGLVQAGGSLRLSCAASGFTYYAMGWYRQAPGKERELVAAITRSGGSTYYADSVKGRFTISRDNAKNSVYLQMKSLKPEDTAVYYCAASGKALKYTARYGSWGQGTQVNVSS,high polyreactivity
9,QVQLVESGGGLVQAGGSLLLSCAASGFIFGPYALGWYRQAPGKERELVAAITWRGGRTYYADSVKGRFTISRDNAKNTVYLQMNSLKPEDTAVYYCAADYPYAMDYWGQGTQVTVSS,high polyreactivity
10,QVQLVESGGGLVQAGGSLRLSCAASGRIFVVYAMGWYRQAPGKERELVASISRGGRTYYADSVKGRFTISRDNAKNTVYLQMNSLKPEDTAVYDCAVVVYLKNRDLFDYWGQGTQVTVSS,low polyreactivity
11,QVQLVESGGGLVQAGGSLRLSCAASGSTRYNAMGWYRQAPGKERELVASIRGNAGSTYYADSVKGRFTISRDNAKNTVYLQMNSLKPEDTAVYYCNARVLRYSCFHYDYCGQGTQVTVSS,high polyreactivity
12,QVQLVESGGGLVQAGGSLRLSCAASGSILDGNNMGWSRQAPGKERELVAAISWRGGSTYYADSVKGRFTISRDNAKNTVYLQMNSLKPEDTAVYYCNTYHPYWGSGFDYWGQGTQVTVSS,low polyreactivity
13,QVQLVESGGGLVQAGGSLRLSCAASGGTFTYYTKGWYRQAPGKERELVAAISTGGRTYYADSVKGRFTISRDNAKNTVYLQMNSLKPEDTAVYYCNADYDETDVLGEFDYWGQGTQVTVSS,low polyreactivity
14,QVQLVESGVGLVQAGGSLRLSCAASGRIFTSNAMGWYRQAPGKERELVAAIHRGGSTYYADSVKGRFTISRDNAKNTVYLQMNSLKPEDTAVYYCNAYRKSARSGGHYDYWGQGTQVTVSS,low polyreactivity
15,QVQLGESGGGLVQAGGSLRLSCAASGSTFNLYAMGWYRQAPGKERELVAAISFSGGSTYYADSVKGRFTISRDNAKNTVYLQMNSLKPEDTAVYYCAAVESSYEAWDTYYYWGQGTQVTVSS,low polyreactivity
16,QVQRVESGGGLVQAGGSLRLSCAASGFIFDDKAMGWYRQAPGKERELVAAITSGGGSTYYADSVKGRFTISRDNAKNTVYLQMNSLKPEDTAVYYCNAVPSQHDEFDYWGQGTQVTVSS,low polyreactivity
